According to publication PMC5063977 (The Journal of Biological Chemistry, 2016):

Experiments:
[1] = biological target: RAMP2-CLR heterodimer expressed in S. cerevisiae (human) (UniProt Q16602)
[2] = biological target: RAMP1-CLR heterodimer expressed in S. cerevisiae (human) (UniProt Q16602)
[3] = biological target: RAMP3-CLR heterodimer expressed in S. cerevisiae (human) (UniProt Q16602)
[4] = biological target: RAMP2-CLR complex expressed in HEK-293 cells (human) (UniProt Q16602)
[5] = biological target: RAMP3-CLR complex expressed in HEK-293 cells (human) (UniProt Q16602)
RAMP3-CLR complex expressed in HEK-293 cells (human), sequence (Q16602 23-461, chain 1 of 2): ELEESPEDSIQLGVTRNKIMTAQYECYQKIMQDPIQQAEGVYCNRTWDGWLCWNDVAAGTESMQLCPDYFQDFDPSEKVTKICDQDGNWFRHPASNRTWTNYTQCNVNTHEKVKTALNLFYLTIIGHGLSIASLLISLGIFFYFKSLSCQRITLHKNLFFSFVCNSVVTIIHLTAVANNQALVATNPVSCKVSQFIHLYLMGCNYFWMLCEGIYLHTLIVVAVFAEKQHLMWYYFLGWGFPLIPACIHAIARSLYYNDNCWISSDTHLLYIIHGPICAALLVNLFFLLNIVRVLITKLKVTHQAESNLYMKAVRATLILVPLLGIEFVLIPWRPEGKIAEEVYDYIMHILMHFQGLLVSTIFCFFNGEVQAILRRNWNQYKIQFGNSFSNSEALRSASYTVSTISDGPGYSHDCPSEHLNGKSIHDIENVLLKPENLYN
RAMP3-CLR complex expressed in HEK-293 cells (human), sequence (O60896 24-148, chain 2 of 2, further chain): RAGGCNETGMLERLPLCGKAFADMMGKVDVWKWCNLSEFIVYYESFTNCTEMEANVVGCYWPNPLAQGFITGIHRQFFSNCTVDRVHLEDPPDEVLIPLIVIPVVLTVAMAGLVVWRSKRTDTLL

[6] = biological target: RAMP1-CLR complex expressed in HEK-293 cells (human) (UniProt Q16602)
RAMP1-CLR complex expressed in HEK-293 cells (human), sequence (Q16602 23-461, chain 1 of 2): as the sequence (Q16602 23-461, chain 1 of 2) above
RAMP1-CLR complex expressed in HEK-293 cells (human), sequence (O60894 27-148, chain 2 of 2, further chain): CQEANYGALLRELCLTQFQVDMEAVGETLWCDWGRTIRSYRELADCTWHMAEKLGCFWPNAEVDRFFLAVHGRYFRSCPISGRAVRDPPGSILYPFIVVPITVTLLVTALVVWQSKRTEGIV

[7] = biological target: RAMP2-CLR complex expressed in HEK-293 cells (human) (UniProt Q16602); remark: listed apart in the source
[8] = biological target: RAMP1-CLR complex expressed in HEK-293S cells (human) (UniProt Q16602)
RAMP1-CLR complex expressed in HEK-293S cells (human), sequence (Q16602 23-461, chain 1 of 2): as the sequence (Q16602 23-461, chain 1 of 2) above
RAMP1-CLR complex expressed in HEK-293S cells (human), sequence (O60894 27-148, chain 2 of 2, further chain): as the sequence (O60894 27-148, chain 2 of 2, further chain) above

[9] = biological target: RAMP3-CLR complex expressed in HEK-293 cells (human) (UniProt Q16602); remark: listed apart in the source
[10] = biological target: RAMP2-CLR complex expressed in HEK-293S cells (human) (UniProt Q16602)
RAMP2-CLR complex expressed in HEK-293S cells (human), sequence (Q16602 23-461, chain 1 of 2): as the sequence (Q16602 23-461, chain 1 of 2) above
RAMP2-CLR complex expressed in HEK-293S cells (human), sequence (O60895 43-175, chain 2 of 2, further chain): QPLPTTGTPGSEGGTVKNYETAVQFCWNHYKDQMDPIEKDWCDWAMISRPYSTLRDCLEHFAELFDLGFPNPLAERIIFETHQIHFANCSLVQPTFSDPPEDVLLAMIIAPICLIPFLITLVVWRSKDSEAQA

[11] = biological target: RAMP1-CLR complex expressed in HEK-293 cells (human) (UniProt Q16602); remark: listed apart in the source
[12] = biological target: RAMP3-CLR complex expressed in HEK-293S cells (human) (UniProt Q16602)
RAMP3-CLR complex expressed in HEK-293S cells (human), sequence (Q16602 23-461, chain 1 of 2): as the sequence (Q16602 23-461, chain 1 of 2) above
RAMP3-CLR complex expressed in HEK-293S cells (human), sequence (O60896 24-148, chain 2 of 2, further chain): as the sequence (O60896 24-148, chain 2 of 2, further chain) above

[13] = biological target: RAMP2-CLR complex expressed in HEK-293 cells (human) (UniProt Q16602); remark: listed apart in the source
[14] = biological target: RAMP3-CLR complex expressed in HEK-293 cells (human) (UniProt Q16602); remark: listed apart in the source
[15] = biological target: RAMP1-CLR complex expressed in HEK-293 cells (human) (UniProt Q16602); remark: listed apart in the source
[16] = biological target: RAMP1-CLR complex expressed in HEK-293S cells (human) (UniProt Q16602); remark: listed apart in the source
[17] = biological target: RAMP2-CLR complex expressed in HEK-293S cells (human) (UniProt Q16602); remark: listed apart in the source
[18] = biological target: RAMP3-CLR complex expressed in HEK-293S cells (human) (UniProt Q16602); remark: listed apart in the source

RAMP2-CLR complex expressed in HEK-293 cells (human), sequence (Q16602 23-461, chain 1 of 2): as the sequence (Q16602 23-461, chain 1 of 2) above
RAMP2-CLR complex expressed in HEK-293 cells (human), sequence (O60895 43-175, chain 2 of 2, further chain): as the sequence (O60895 43-175, chain 2 of 2, further chain) above
RAMP3-CLR heterodimer expressed in S. cerevisiae (human), sequence (Q16602 23-461, chain 1 of 2): as the sequence (Q16602 23-461, chain 1 of 2) above
RAMP3-CLR heterodimer expressed in S. cerevisiae (human), sequence (O60896 24-148, chain 2 of 2, further chain): as the sequence (O60896 24-148, chain 2 of 2, further chain) above
RAMP1-CLR heterodimer expressed in S. cerevisiae (human), sequence (Q16602 23-461, chain 1 of 2): as the sequence (Q16602 23-461, chain 1 of 2) above
RAMP1-CLR heterodimer expressed in S. cerevisiae (human), sequence (O60894 27-148, chain 2 of 2, further chain): as the sequence (O60894 27-148, chain 2 of 2, further chain) above
RAMP2-CLR heterodimer expressed in S. cerevisiae (human), sequence (Q16602 23-461, chain 1 of 2): as the sequence (Q16602 23-461, chain 1 of 2) above
RAMP2-CLR heterodimer expressed in S. cerevisiae (human), sequence (O60895 43-175, chain 2 of 2, further chain): as the sequence (O60895 43-175, chain 2 of 2, further chain) above

pEC50, yeast growth reporter, GPA1/Gαi chimera strain [1]: 8.42 -log10
pEC50, yeast growth reporter, GPA1/Gαq chimera strain [1]: 9.22 -log10
pEC50, yeast growth reporter, GPA1/Gαs chimera strain [1]: 8.05 -log10
pKa (operational model of agonism), yeast growth reporter, GPA1/Gαi chimera strain [1]: 8.3 -log10
pKa (operational model of agonism), yeast growth reporter, GPA1/Gαq chimera strain [1]: 9.16 -log10
pKa (operational model of agonism), yeast growth reporter, GPA1/Gαs chimera strain [1]: 8.1 -log10
pEC50, yeast growth reporter, GPA1/Gαi chimera strain [2]: 8.57 -log10
pEC50, yeast growth reporter, GPA1/Gαq chimera strain [2]: 7.99 -log10
pEC50, yeast growth reporter, GPA1/Gαs chimera strain [2]: 7.22 -log10
pKa (operational model of agonism), yeast growth reporter, GPA1/Gαi chimera strain [2]: 8.24 -log10
pKa (operational model of agonism), yeast growth reporter, GPA1/Gαq chimera strain [2]: 7.91 -log10
pKa (operational model of agonism), yeast growth reporter, GPA1/Gαs chimera strain [2]: 7.31 -log10
pEC50, yeast growth reporter, GPA1/Gαi chimera strain [3]: 8.49 -log10
pEC50, yeast growth reporter, GPA1/Gαq chimera strain [3]: 6.76 -log10
pEC50, yeast growth reporter, GPA1/Gαs chimera strain [3]: 8.85 -log10
pKa (operational model of agonism), yeast growth reporter, GPA1/Gαi chimera strain [3]: 8.3 -log10
pKa (operational model of agonism), yeast growth reporter, GPA1/Gαq chimera strain [3]: 6.6 -log10
pKa (operational model of agonism), yeast growth reporter, GPA1/Gαs chimera strain [3]: 8.61 -log10
pKa (operational model of agonism), cAMP accumulation in HEK-293 cells, with PTX pretreatment [4]: 8.84 -log10
pEC50, cAMP accumulation in HEK-293 cells, with PTX pretreatment [5]: 8.74 -log10
pEC50, cAMP accumulation in HEK-293 cells, without PTX [5]: 9.1 -log10
pKa (operational model of agonism), cAMP accumulation in HEK-293 cells, with PTX pretreatment [5]: 8.43 -log10
pKa (operational model of agonism), cAMP accumulation in HEK-293 cells, without PTX [5]: 9.08 -log10
pEC50, cAMP accumulation in HEK-293 cells, with PTX pretreatment [6]: 9.15 -log10
pEC50, cAMP accumulation in HEK-293 cells, without PTX [6]: 7.93 -log10
pKa (operational model of agonism), cAMP accumulation in HEK-293 cells, with PTX pretreatment [6]: 8.56 -log10
pKa (operational model of agonism), cAMP accumulation in HEK-293 cells, without PTX [6]: 7.7 -log10
pEC50, (Ca^2+)i mobilization in HEK-293 cells [7]: 7.41 -log10
pKa (operational model of agonism), (Ca^2+)i mobilization in HEK-293 cells [7]: 7.15 -log10
pEC50, (Ca^2+)i mobilization in HEK-293S cells [8]: 6.94 -log10
pKa (operational model of agonism), (Ca^2+)i mobilization in HEK-293S cells [8]: 6.76 -log10
pEC50, (Ca^2+)i mobilization in HEK-293 cells [9]: 8.05 -log10
pKa (operational model of agonism), (Ca^2+)i mobilization in HEK-293 cells [9]: 7.95 -log10
pEC50, (Ca^2+)i mobilization in HEK-293S cells [10]: 7.42 -log10
pKa (operational model of agonism), (Ca^2+)i mobilization in HEK-293S cells [10]: 7.33 -log10
pEC50, (Ca^2+)i mobilization in HEK-293 cells [11]: 6.76 -log10
pKa (operational model of agonism), (Ca^2+)i mobilization in HEK-293 cells [11]: 6.64 -log10
pEC50, (Ca^2+)i mobilization in HEK-293S cells [12]: 7.44 -log10
pKa (operational model of agonism), (Ca^2+)i mobilization in HEK-293S cells [12]: 7.35 -log10
pEC50, cAMP accumulation in HEK-293 cells [13]: 7.48 -log10
pKa (operational model of agonism), cAMP accumulation in HEK-293 cells [13]: 7.16 -log10
pEC50, cAMP accumulation in HEK-293 cells [14]: 9.14 -log10
pKa (operational model of agonism), cAMP accumulation in HEK-293 cells [14]: 9 -log10
pEC50, cAMP accumulation in HEK-293 cells [15]: 7.93 -log10
pKa (operational model of agonism), cAMP accumulation in HEK-293 cells [15]: 7.76 -log10
pEC50, cAMP accumulation in HEK-293S cells, with PTX pretreatment [16]: 8.78 -log10
pEC50, cAMP accumulation in HEK-293S cells, without PTX [16]: 8.74 -log10
pEC50, cAMP accumulation in HEK-293S cells, without PTX [17]: 8.57 -log10
pEC50, cAMP accumulation in HEK-293S cells, with PTX pretreatment [18]: 7.79 -log10
pEC50, cAMP accumulation in HEK-293S cells, without PTX [18]: 8.01 -log10
Substance: hAM2 (1–47) (peptide)
